{
  "source": "patent US20120065106",
  "key": {"[1]": {"system": "SMT3-GFP (wild-type SUMO-GFP fusion) [SUMO: Q12306]", "sequence (Q12306 whole entry, looked up, the tested form may be a part)": "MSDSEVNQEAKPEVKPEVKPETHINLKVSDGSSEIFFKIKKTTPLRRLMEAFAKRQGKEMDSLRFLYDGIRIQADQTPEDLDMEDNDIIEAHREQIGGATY"}, "[2]": {"system": "SUMO*-GFP (engineered SUMO 2F4, Smt3 R64T R71E, fused to GFP)", "sequence (chain, as listed by the source R64T R71E)": "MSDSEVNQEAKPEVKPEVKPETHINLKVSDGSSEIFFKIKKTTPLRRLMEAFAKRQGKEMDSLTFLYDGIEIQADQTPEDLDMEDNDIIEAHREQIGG"}},
  "data": [
    {"substance": "SUMO protease 2 (SENP2)", "values": [
      {"measurement": "in vitro cleavage (SDS-PAGE and anti-Smt3 Western blot)", "setting": "[1]", "value": "wild-type SUMO (Smt3) is cleaved by ULP1 and SENP2 (SUMO protease 1 and 2) in vitro"},
      {"measurement": "in vitro cleavage reaction", "setting": "[2]", "value": "Neither protease cleaved SUMO*"}
    ]}
  ]
}
